Measured values published in article PMC5555194.
“And” between values parts separate entries of the source, which are not always exact repeats. Equal entries are not always repeated.

Molecular target: C3b (human) (UniProt P01024)
Experiment: SPR; C3b amine-coupled to a Biacore C1 chip; dilution series of CFH (from 2.5 to 0.019 uM), preincubated with or without a 2-fold molar excess of PspCN, flowed over; Biacore T200, 25 °C, 10 mM HEPES, 150 mM NaCl, 0.05% P20; 1:1 steady-state model; three experiments on different chips

C3b (human), sequence (P01024 23-667, chain 1 of 2): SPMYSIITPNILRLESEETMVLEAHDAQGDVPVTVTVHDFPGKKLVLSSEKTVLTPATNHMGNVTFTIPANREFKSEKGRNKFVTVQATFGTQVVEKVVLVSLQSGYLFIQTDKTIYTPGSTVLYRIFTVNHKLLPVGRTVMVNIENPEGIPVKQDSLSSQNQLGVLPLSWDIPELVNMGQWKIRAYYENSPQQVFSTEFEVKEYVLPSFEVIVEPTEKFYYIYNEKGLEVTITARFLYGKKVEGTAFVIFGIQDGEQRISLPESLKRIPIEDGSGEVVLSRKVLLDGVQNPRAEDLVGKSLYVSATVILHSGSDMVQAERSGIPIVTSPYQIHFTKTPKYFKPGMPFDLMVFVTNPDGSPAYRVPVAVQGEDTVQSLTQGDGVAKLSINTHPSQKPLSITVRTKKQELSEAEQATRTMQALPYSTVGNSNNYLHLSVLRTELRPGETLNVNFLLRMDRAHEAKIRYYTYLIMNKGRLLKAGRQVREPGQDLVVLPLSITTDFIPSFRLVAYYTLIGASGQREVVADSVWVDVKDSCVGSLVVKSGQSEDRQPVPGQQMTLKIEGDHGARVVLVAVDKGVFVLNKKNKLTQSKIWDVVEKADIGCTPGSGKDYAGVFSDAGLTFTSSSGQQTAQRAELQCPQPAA
C3b (human), sequence (P01024 749-1663, chain 2 of 2): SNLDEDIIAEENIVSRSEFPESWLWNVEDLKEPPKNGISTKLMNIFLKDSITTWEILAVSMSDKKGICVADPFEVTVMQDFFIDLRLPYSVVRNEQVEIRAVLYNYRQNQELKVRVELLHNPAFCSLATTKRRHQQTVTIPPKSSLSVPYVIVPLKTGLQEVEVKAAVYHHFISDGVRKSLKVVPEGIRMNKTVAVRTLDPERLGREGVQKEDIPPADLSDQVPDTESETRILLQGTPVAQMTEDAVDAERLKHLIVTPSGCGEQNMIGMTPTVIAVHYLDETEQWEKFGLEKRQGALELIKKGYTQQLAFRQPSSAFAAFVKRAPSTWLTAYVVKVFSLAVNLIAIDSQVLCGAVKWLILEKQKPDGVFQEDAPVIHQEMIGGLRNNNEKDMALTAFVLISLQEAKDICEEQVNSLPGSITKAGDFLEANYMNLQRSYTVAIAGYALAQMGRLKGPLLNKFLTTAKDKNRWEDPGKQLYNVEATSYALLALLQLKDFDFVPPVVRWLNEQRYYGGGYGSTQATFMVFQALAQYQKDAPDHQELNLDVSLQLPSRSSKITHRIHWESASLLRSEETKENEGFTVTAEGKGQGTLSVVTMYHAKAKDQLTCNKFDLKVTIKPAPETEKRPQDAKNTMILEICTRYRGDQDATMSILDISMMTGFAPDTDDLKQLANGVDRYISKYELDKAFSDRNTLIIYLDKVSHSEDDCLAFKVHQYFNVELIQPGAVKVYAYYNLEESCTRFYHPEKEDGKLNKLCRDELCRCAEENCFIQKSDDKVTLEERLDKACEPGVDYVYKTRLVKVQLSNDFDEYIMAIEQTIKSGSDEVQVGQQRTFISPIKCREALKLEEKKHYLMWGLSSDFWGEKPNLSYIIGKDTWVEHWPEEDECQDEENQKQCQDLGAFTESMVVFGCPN

| Substance | Kd |
| --- | --- |
| CFH purified from human plasma (plasma CFH) (from UniProt P08603 19-1231) (natural protein) | 330 nM |
| I62-CFH–PspCN complex (from UniProt P08603 19-1231; Q9KK19 37-140) | 620 nM and 500 nM |
| LA-CFH–PspCN complex (from UniProt P08603 19-1231; Q9KK19 37-140) | 700 nM and 600 nM |
| R53H-CFH–PspCN complex (from UniProt P08603 19-1231; Q9KK19 37-140) | 1000 nM and 580 nM |
